Assay results from PMC4422123, “The peroxisomal protein import machinery displays a preference for monomeric substrates” (Open Biology, 2015).
Blank lines part the entries; values can stand above or below the molecule they belong to.

Assays:
[1] = target: acyl-CoA oxidase 1 (ACOX1), untagged, in vitro synthesized (mouse) (UniProt Q9R0H0); test: sucrose gradient centrifugation; 35S-labelled protein synthesized (30 min ACOX1, 45 min UOX) and chased for 4 h with cycloheximide without PEX5; 5-30% sucrose in buffer B, 39 000 r.p.m., 29 h, 4°C
[2] = target: the molecule itself; test: as above

stoichiometry N [1]: 2
Molecule: acyl-CoA oxidase 1 (ACOX1), untagged, in vitro synthesized (from UniProt Q9R0H0 1-661) (natural protein)

B1: urate oxidase (UOX), untagged, in vitro synthesized (natural protein, mouse, UniProt P25688 1-303, looked up)
chain: MAHYHDNYGKNDEVEFVRTGYGKDMVKVLHIQRDGKYHSIKEVATSVQLTLRSKKDYLHGDNSDIIPTDTIKNTVHVLAKLRGIRNIETFAMNICEHFLSSFNHVTRAHVYVEEVPWKRFEKNGIKHVHAFIHTPTGTHFCEVEQMRNGPPVIHSGIKDLKVLKTTQSGFEGFLKDQFTTLPEVKDRCFATQVYCKWRYQRRDVDFEAIWGAVRDIVLQKFAGPYDKGEYSPSVQKTLYDIQVLSLSQLPEIEDMEISLPNIHYFNIDMSKMGLINKEEVLLPLDNPYGKITGTVKRKLPSRL
modifications: 35S-methionine labelled
notes: mouse urate oxidase, cDNA amplified with primers from the start codon to the stop codon, in pGEM4; also called mUOX; monomeric UOX; source: in vitro translated (rabbit reticulocyte lysate, TnT T7 QuickCoupled kit), not purified
stoichiometry N [2]: 4
